From paper PMC7642319, “Behavior control of membrane-less protein liquid condensates with metal ion-induced phase separation” (Nature Communications, 2020)

B1: ELEL mutant PRM peptide (four Lys residues mutated to acidic ELEL) (peptide)
chain: ELELTAPTPPKRS
B2: proline-rich motif (PRM) peptide, wild type (peptide)
chain: MKKKKTAPTPPKRS
B3: P9A mutant PRM(H) peptide (peptide)
chain: MKKTPPPVAPRTTSK
B4: P7A P9A double mutant PRM(H) peptide (peptide)
chain: MKKTPPAVAPRTTSK
B5: PRM(H) peptide, wild type (peptide)
chain: MKKTPPPVPPRTTSK
B6: EE mutant PRM(H) peptide (two Lys residues mutated to acidic EE) (peptide)
chain: MEETPPPVPPRTTSK
B7: P7A mutant PRM(H) peptide (peptide)
chain: MKKTPPAVPPRTTSK

target: T1, second SH3 domain from Nck; test: ITC; SH3 domain in the cell, chemically synthesized peptide as titrant in the syringe; PBS pH 7.4, 25 °C; one-site binding model; conditions: both partners purified
T1 construct: second SH3 domain of Nck; The methods say that 6His-tagged proteins were purified on Ni-IDA and that the tag could be removed with TEV protease; also called free SH3; SH3 domain proteins; source: E. coli BL21 (DE3), pET-21a, purified (Ni-IDA)

Question: With B1 as the binder, how does the Kd read?
Answer: Its Kd is 121 µM.

Question: Which Kd does the source give for B2 here?
Answer: Its Kd is 379 µM.

Question: B3 was tested. Which Kd did it give?
Answer: Its Kd is 102 µM.

Question: B4 was tested. Which Kd did it give?
Answer: The Kd was 131 µM.

Question: With B5 as the binder, how does the Kd read?
Answer: The Kd was 12.8 µM.

Question: B6 was tested. Which Kd did it give?
Answer: The Kd was 3.32 µM.

Question: How did the Kd turn out when B7 was run?
Answer: The Kd was 19.4 µM.
